# Patent US20230212235A1
# What was measured:
# [1] = target: GFP [GFP: P42212]; assay: SPR, GFP immobilised, nanobody injected; kinetic Kd
# [2] = target: GFP [GFP: P42212]; assay: SPR, GFP immobilised, nanobody injected; equilibrium Kd
# [3] = target: GFP [GFP: P42212]; assay: SPR, GFP immobilised; order of magnitude told of all four nanobodies
substance,measurement,setting,value
GBN^WT (wild-type GFP-binding nanobody) (VHH),Kd,[1],18.9 nM
same,Kd,[2],233 nM
same,koff,[3],0.0001 s⁻¹
same,kon,[3],10000 M⁻¹ s⁻¹
